Here are results for four substances from publication PMC12221289.

What all share (test): DRaCALA
For data set [1], the system named is Rcu mt-EF-Tu1 (Romanomermis culicivorax). The following applies: 3'-aminoacylated with Phe (flexizyme); DRaCALA of EF-Tu:GTP:Phe-tRNA ternary complexes, 2 ul spotted on nitrocellulose, n>=3; binding buffer, pH and temperature not in the material.
In data set [2] the test system is Tbr mt-EF-Tu1 S381D (Trichinella britovi). Particulars: 3'-aminoacylated with Phe (flexizyme); DRaCALA of EF-Tu:GTP:Phe-tRNA ternary complexes, 2 ul spotted on nitrocellulose, n>=3; binding buffer, pH and temperature not in the material.
Data set [3] concerns Rcu mt-EF-Tu1 ΔC15 (Romanomermis culicivorax). The following applies: GTP; apparent Kd; 3'-aminoacylated with Phe (flexizyme); DRaCALA of EF-Tu:GTP:Phe-tRNA ternary complexes, 2 ul spotted on nitrocellulose, n>=3; binding buffer, pH and temperature not in the material.
Data set [4] deals with Rcu mt-EF-Tu1 ΔC18 (Romanomermis culicivorax). Particulars: 3'-aminoacylated with Phe (flexizyme); DRaCALA of EF-Tu:GTP:Phe-tRNA ternary complexes, 2 ul spotted on nitrocellulose, n>=3; binding buffer, pH and temperature not in the material.
The test system of data set [5] is Rcu mt-EF-Tu1 K380A (Romanomermis culicivorax). The following applies: 3'-aminoacylated with Phe (flexizyme); DRaCALA of EF-Tu:GTP:Phe-tRNA ternary complexes, 2 ul spotted on nitrocellulose, n>=3; binding buffer, pH and temperature not in the material.
In data set [6] the test system is Cel mt-EF-Tu1 K386D (Caenorhabditis elegans). The following applies: 3'-aminoacylated with Phe (flexizyme); DRaCALA of EF-Tu:GTP:Phe-tRNA ternary complexes, 2 ul spotted on nitrocellulose, n>=3; binding buffer, pH and temperature not in the material.
Data set [7] has as its system Tbr mt-EF-Tu1 S381K (Trichinella britovi). The following applies: 3'-aminoacylated with Phe (flexizyme); DRaCALA of EF-Tu:GTP:Phe-tRNA ternary complexes, 2 ul spotted on nitrocellulose, n>=3; binding buffer, pH and temperature not in the material.
The test system of data set [8] is Rcu mt-EF-Tu1 K380E (Romanomermis culicivorax). The following applies: 3'-aminoacylated with Phe (flexizyme); DRaCALA of EF-Tu:GTP:Phe-tRNA ternary complexes, 2 ul spotted on nitrocellulose, n>=3; binding buffer, pH and temperature not in the material.
For data set [9], the target named is Bta mt-EF-Tu D384K D384K (Bos taurus) (UniProt P49410). Particulars: 3'-aminoacylated with Phe (flexizyme); DRaCALA of EF-Tu:GTP:Phe-tRNA ternary complexes, 2 ul spotted on nitrocellulose, n>=3; binding buffer, pH and temperature not in the material.
The test system of data set [10] is Rcu mt-EF-Tu1 K380R (Romanomermis culicivorax). The following applies: 3'-aminoacylated with Phe (flexizyme); DRaCALA of EF-Tu:GTP:Phe-tRNA ternary complexes, 2 ul spotted on nitrocellulose, n>=3; binding buffer, pH and temperature not in the material.
Data set [11] deals with Bta mt-EF-Tu D384A D384A (Bos taurus) (UniProt P49410). Particulars: 3'-aminoacylated with Phe (flexizyme); DRaCALA of EF-Tu:GTP:Phe-tRNA ternary complexes, 2 ul spotted on nitrocellulose, n>=3; binding buffer, pH and temperature not in the material.
Data set [12] has as its system Rcu mt-EF-Tu1 ΔC3 (Romanomermis culicivorax). The following applies: 3'-aminoacylated with Phe (flexizyme); DRaCALA of EF-Tu:GTP:Phe-tRNA ternary complexes, 2 ul spotted on nitrocellulose, n>=3; binding buffer, pH and temperature not in the material.
The subject of data set [13] is Rcu mt-EF-Tu1 region F chimera (Romanomermis culicivorax). The following applies: 3'-aminoacylated with Phe (flexizyme); DRaCALA of EF-Tu:GTP:Phe-tRNA ternary complexes, 2 ul spotted on nitrocellulose, n>=3; binding buffer, pH and temperature not in the material.
Data set [14] deals with Rcu mt-EF-Tu1 K380D/ΔC50 (Romanomermis culicivorax). The following applies: GTP; apparent Kd; 3'-aminoacylated with Phe (flexizyme); DRaCALA of EF-Tu:GTP:Phe-tRNA ternary complexes, 2 ul spotted on nitrocellulose, n>=3; binding buffer, pH and temperature not in the material.
The test system of data set [15] is Rcu mt-EF-Tu1 K380D (Romanomermis culicivorax). Particulars: 3'-aminoacylated with Phe (flexizyme); DRaCALA of EF-Tu:GTP:Phe-tRNA ternary complexes, 2 ul spotted on nitrocellulose, n>=3; binding buffer, pH and temperature not in the material.
Data set [16] relates to Cel mt-EF-Tu1 (Caenorhabditis elegans). Particulars: 3'-aminoacylated with Phe (flexizyme); DRaCALA of EF-Tu:GTP:Phe-tRNA ternary complexes, 2 ul spotted on nitrocellulose, n>=3; binding buffer, pH and temperature not in the material.
Data set [17] deals with Rcu mt-EF-Tu1 ΔC50 (Romanomermis culicivorax). Particulars: 3'-aminoacylated with Phe (flexizyme); DRaCALA of EF-Tu:GTP:Phe-tRNA ternary complexes, 2 ul spotted on nitrocellulose, n>=3; binding buffer, pH and temperature not in the material.
Data set [18] deals with Tbr mt-EF-Tu1 (Trichinella britovi). Particulars: 3'-aminoacylated with Phe (flexizyme); DRaCALA of EF-Tu:GTP:Phe-tRNA ternary complexes, 2 ul spotted on nitrocellulose, n>=3; binding buffer, pH and temperature not in the material.

In the case of “AGUCAAAUAGCUUAACCUUAAAGCACAAAUCUUUUAAAUUUGAAGAUGUAUCCACUUUGACUACCA [Phe-mt-tRNALys (T-armless)]”, the Kd in data set [1] stood at 5.2 nM.

On to Phe-mt-tRNAIle (armless), for which the Kd in [2] amounted to 7.1 nM; in data set [3] it was 40.7 nM; in data set [5], 33.4 nM; in [1], 5.8 nM; in [6] it was 62.6 nM; in data set [7] it was 3 nM. The Kd in [8] turned out to be 150 nM; in data set [9], 96.8 nM; in data set [10], 16.5 nM; in data set [11], 60.1 nM; in data set [13] it was 222 nM; in data set [14] it was 350 nM. Moreover, the Kd in [15] was 70.4 nM; in data set [16], 17.1 nM; in data set [18], 4.4 nM. Besides, the results for the fold Kd increase vs wild type (fold Kd increase vs wt) in [4], in data set [12] and in data set [17] were 8.7, 1.5 and 14, respectively.

The substance Phe-mt-tRNASer(UCU) (D-armless) came in with a Kd in [1] of 66.4 nM.

Consider “GCGGAUUUAGCUCAGUUGGGAGAGCGCCAGACUGAAGAUCUGGAGGUCCUGUGUUCGAUCCACAGAAUUCGCACCA [Phe-tRNAPhe (canonical)]”, for which the Kd in [1] is 22.6 nM.
